Experimental data from US11306156.
Values joined by “and” are separate entries in the source; they are usually repeats but may differ in a detail not shown here. Equal values may be shown once.

Columns and labels:
[1] = target: D3H44 Fab heavy chain L143E_K145T; test: LCCA, L1:L2 DNA 1:3 normalised to 1:1, SPR of light chain tags; competitor m31
[2] = target: D3H44 Fab heavy chain Q179R; test: as above
[3] = target: D3H44 Fab heavy chain Q179K; test: as above
[4] = target: D3H44 Fab heavy chain S186R; test: as above
[5] = target: D3H44 Fab heavy chain L143E_K145T; test: LCCA, L1:L2 DNA 1:3 normalised to 1:1, SPR of light chain tags; competitor m33
[6] = target: D3H44 Fab heavy chain S186R; test: as above
[7] = target: D3H44 Fab heavy chain L124A_S186K; test: as above
[8] = target: D3H44 Fab heavy chain L143E_K145T_S188L, C-terminal ABD2-His6 tag; test: LCCA: heavy chain co-expressed with two light chains, SPR detection of light chain tags; L1:L2 DNA 1:3, normalized to 1:1; competing light chain m11
[9] = target: D3H44 Fab heavy chain S186K, C-terminal ABD2-His6 tag; test: as above
[10] = target: D3H44 Fab heavy chain Q179R, C-terminal ABD2-His6 tag; test: as above
[11] = target: D3H44 Fab heavy chain L143E_K145T_Q179E_S188L, C-terminal ABD2-His6 tag; test: LCCA: heavy chain co-expressed with two light chains, SPR detection of light chain tags; L1:L2 DNA 1:3, normalized to 1:1; competing light chain m20
[12] = target: D3H44 Fab heavy chain S186R, C-terminal ABD2-His6 tag; test: as above
[13] = target: D3H44 Fab heavy chain L143E_K145T_S188L, C-terminal ABD2-His6 tag; test: LCCA: heavy chain co-expressed with two light chains, SPR detection of light chain tags; L1:L2 DNA 1:9, normalized to 1:1; competing light chain m11
[14] = target: D3H44 Fab heavy chain S186K, C-terminal ABD2-His6 tag; test: as above
[15] = target: D3H44 Fab heavy chain L143K; test: LCCA, L1:L2 DNA 1:3 normalised to 1:1, SPR of light chain tags; competitor m34
[16] = target: D3H44 Fab heavy chain L143E_K145T_S188L; test: as above
[17] = target: D3H44 Fab heavy chain L143R; test: as above
[18] = target: D3H44 Fab heavy chain L143E_K145T_Q179E_S188L, C-terminal ABD2-His6 tag; test: LCCA: heavy chain co-expressed with two light chains, SPR detection of light chain tags; L1:L2 DNA 1:3, normalized to 1:1; competing light chain m12
[19] = target: D3H44 Fab heavy chain S186R, C-terminal ABD2-His6 tag; test: as above
[20] = target: D3H44 Fab heavy chain L143E_K145T_S188L; test: LCCA, L1:L2 DNA 1:3 normalised to 1:1, SPR of light chain tags; competitor m40
[21] = target: D3H44 Fab heavy chain L143E_K145T; test: LCCA, L1:L2 DNA 1:3 normalised to 1:1, SPR of light chain tags; competitor m35
[22] = target: D3H44 Fab heavy chain L143E_K145T_S188L; test: LCCA, L1:L2 DNA 1:3 normalised to 1:1, SPR of light chain tags; competitor m38
[23] = target: D3H44 Fab heavy chain L143E_K145T; test: LCCA, L1:L2 DNA 1:3 normalised to 1:1, SPR of light chain tags; competitor m32
[24] = target: D3H44 Fab heavy chain L143E_K145T_S188L; test: LCCA, L1:L2 DNA 1:3 normalised to 1:1, SPR of light chain tags; competitor m37
[25] = target: D3H44 Fab heavy chain L143E_K145T_S188L, C-terminal ABD2-His6 tag; test: LCCA: heavy chain co-expressed with two light chains, SPR detection of light chain tags; L1:L2 DNA 1:3, normalized to 1:1; competing light chain m17
[26] = target: D3H44 Fab heavy chain L143R, C-terminal ABD2-His6 tag; test: as above
[27] = target: D3H44 Fab heavy chain L143E_K145T_S188L, C-terminal ABD2-His6 tag; test: LCCA: heavy chain co-expressed with two light chains, SPR detection of light chain tags; L1:L2 DNA 1:3, normalized to 1:1; competing light chain m14
[28] = target: D3H44 Fab heavy chain Q179K, C-terminal ABD2-His6 tag; test: as above
[29] = target: D3H44 Fab heavy chain S186K, C-terminal ABD2-His6 tag; test: as above
[30] = target: D3H44 Fab heavy chain L143E_K145T_S188L, C-terminal ABD2-His6 tag; test: LCCA: heavy chain co-expressed with two light chains, SPR detection of light chain tags; L1:L2 DNA 1:3, normalized to 1:1; competing light chain m12
[31] = target: D3H44 Fab heavy chain S186K, C-terminal ABD2-His6 tag; test: as above
[32] = target: D3H44 Fab heavy chain Q179R, C-terminal ABD2-His6 tag; test: as above
[33] = target: D3H44 Fab heavy chain L143E_K145T_S188L, C-terminal ABD2-His6 tag; test: LCCA: heavy chain co-expressed with two light chains, SPR detection of light chain tags; L1:L2 DNA 1:9, normalized to 1:1; competing light chain m12
[34] = target: D3H44 Fab heavy chain S186K, C-terminal ABD2-His6 tag; test: as above
[35] = target: D3H44 Fab heavy chain Q179K, C-terminal ABD2-His6 tag; test: LCCA: heavy chain co-expressed with two light chains, SPR detection of light chain tags; L1:L2 DNA 1:3, normalized to 1:1; competing light chain m15
[36] = target: D3H44 Fab heavy chain L143E_K145T, C-terminal ABD2-His6 tag; test: as above
[37] = target: D3H44 Fab heavy chain L143E_K145T, C-terminal ABD2-His6 tag; test: LCCA: heavy chain co-expressed with two light chains, SPR detection of light chain tags; L1:L2 DNA 1:9, normalized to 1:1; competing light chain m13
[38] = target: D3H44 Fab heavy chain S186K, C-terminal ABD2-His6 tag; test: as above
[39] = target: D3H44 Fab heavy chain L143E_K145T, C-terminal ABD2-His6 tag; test: LCCA: heavy chain co-expressed with two light chains, SPR detection of light chain tags; L1:L2 DNA 1:3, normalized to 1:1; competing light chain m13
[40] = target: D3H44 Fab heavy chain L143E_K145T_S188L, C-terminal ABD2-His6 tag; test: LCCA: heavy chain co-expressed with two light chains, SPR detection of light chain tags; L1:L2 DNA 1:3, normalized to 1:1; competing light chain m16
[41] = target: D3H44 Fab heavy chain Q179K, C-terminal ABD2-His6 tag; test: as above
[42] = target: D3H44 Fab heavy chain L143E_K145T_S188L, C-terminal ABD2-His6 tag; test: LCCA: heavy chain co-expressed with two light chains, SPR detection of light chain tags; L1:L2 DNA 1:9, normalized to 1:1; competing light chain m17
[43] = target: D3H44 Fab heavy chain L143R, C-terminal ABD2-His6 tag; test: as above
[44] = target: D3H44 Fab heavy chain L143R; test: LCCA, L1:L2 DNA 1:3 normalised to 1:1, SPR of light chain tags; competitor m33
[45] = target: D3H44 Fab heavy chain L143E_K145T_S188L; test: as above
[46] = target: D3H44 Fab heavy chain L143E_K145T; test: LCCA, L1:L2 DNA 1:3 normalised to 1:1, SPR of light chain tags; competitor m34
[47] = target: D3H44 Fab heavy chain L143K_D146G; test: as above

Work on D3H44 light chain S131E yielded an H1L1:H1L2 normalized median ratio [1] of 54%, an H2L2:H2L1 normalized median ratio [2] of 97% and an H2L2:H2L1 normalized median ratio [3] of 97%. The H2L2:H2L1 normalized median ratio [4] was 95%, the H1L1:H1L2 normalized median ratio [5] was 53% and the H2L2:H2L1 normalized median ratio [6] was 96%.

D3H44 light chain Q124E_V133W_T180E gave an H1L1:H1L2 normalized median scalar value ln(r1/f1) [7] of 2.54.

In the case of “D3H44 light chain Q124E_S131T_T178Y_T180E, N-terminal HA or FLAG tag”, the H1L1:H1L2 normalized median ratio [8] is reported as 26%, the H2L2:H2L1 normalized median ratio [9] is reported as 94% and the H2L2:H2L1 normalized median ratio [10] is reported as 95%. For the same substance, the H1L1:H1L2 normalized median ratio [11] was 17%, the H2L2:H2L1 normalized median ratio [12] was 88% and the H1L1:H1L2 normalized median ratio [13] was 16%. The H2L2:H2L1 normalized median ratio [14] was 89%.

D3H44 light chain Q124E_V133D_S176L showed an H2L2:H2L1 normalized median ratio [15] of 90% and an H1L1:H1L2 normalized median ratio [16] of 26%.

In the case of D3H44 light chain Q124E_V133E_S176L, the H2L2:H2L1 normalized median ratio [17] is reported as 86% and the H1L1:H1L2 normalized median ratio [16] is reported as 31%.

In the case of “D3H44 light chain Q124R_T178R, N-terminal HA or FLAG tag”, the H1L1:H1L2 normalized median ratio [18] is reported as 83%, the H1L1:H1L2 normalized median scalar value ln(r1/f1) [18] is reported as 1.62 and the H2L2:H2L1 normalized median ratio [19] is reported as 12%.

With D3H44 light chain Q124R the H1L1:H1L2 normalized median scalar value ln(r1/f1) [20] was 0.82, the H1L1:H1L2 normalized median scalar value ln(r1/f1) [21] was 0.71 and the H1L1:H1L2 normalized median scalar value ln(r1/f1) [22] was 1.06.

For D3H44 light chain Q124R_Q160K_T178R, the H1L1:H1L2 normalized median scalar value ln(r1/f1) [23] was -0.14 and the H1L1:H1L2 normalized median scalar value ln(r1/f1) [24] was 0.03.

“D3H44 light chain Q124R_Q160K_T178R, N-terminal HA or FLAG tag” showed an H1L1:H1L2 normalized median ratio [25] of 74%, an H1L1:H1L2 normalized median scalar value ln(r1/f1) [25] of 1.04 and an H2L2:H2L1 normalized median ratio [26] of 6%. For the same substance, the H1L1:H1L2 normalized median ratio [27] was 57%, the H1L1:H1L2 normalized median scalar value ln(r1/f1) [27] was 0.28 and 0.23 and the H2L2:H2L1 normalized median ratio [28] was 3%. For the same substance, the H2L2:H2L1 normalized median ratio [29] was 3%, the H1L1:H1L2 normalized median ratio [30] was 74% and the H1L1:H1L2 normalized median scalar value ln(r1/f1) [30] was 1.03. For the same substance, the H2L2:H2L1 normalized median ratio [31] was 6%, the H2L2:H2L1 normalized median ratio [32] was 5% and the H1L1:H1L2 normalized median ratio [33] was 84%. For the same substance, the H1L1:H1L2 normalized median scalar value ln(r1/f1) [33] was 1.65, the H2L2:H2L1 normalized median ratio [34] was 11% and the H2L2:H2L1 normalized median ratio [35] was 2%. The H1L1:H1L2 normalized median ratio [36] was 47%, the H1L1:H1L2 normalized median scalar value ln(r1/f1) [36] was -0.14 and the H1L1:H1L2 normalized median ratio [37] was 81%. It also gave an H1L1:H1L2 normalized median scalar value ln(r1/f1) [37] of 1.44, an H2L2:H2L1 normalized median ratio [38] of 10% and an H1L1:H1L2 normalized median ratio [39] of 82%. For the same substance, the H1L1:H1L2 normalized median scalar value ln(r1/f1) [39] was 1.77, the H1L1:H1L2 normalized median ratio [40] was 59% and the H1L1:H1L2 normalized median scalar value ln(r1/f1) [40] was 0.37. For the same substance, the H2L2:H2L1 normalized median ratio [41] was 3%, the H1L1:H1L2 normalized median ratio [42] was 86% and the H1L1:H1L2 normalized median scalar value ln(r1/f1) [42] was 1.79. The H2L2:H2L1 normalized median ratio [43] was 21%.

D3H44 light chain Q124E_V133E showed an H2L2:H2L1 normalized median ratio [44] of 96% and an H1L1:H1L2 normalized median ratio [45] of 49%.

D3H44 light chain Q124E_V133D gave an H1L1:H1L2 normalized median ratio [46] of 33% and an H2L2:H2L1 normalized median ratio [47] of 91%.
